In publication PMC2265524, “ruvA Mutants That Resolve Holliday Junctions but Do Not Reverse Replication Forks” (PLoS Genetics, 2008):
Where a chain is given by its changes, count along the chain named.

Key:
[1] = biological target: T1, RuvAz87 (Escherichia coli, UniProt P0A809 1-203, N79D;N100D); experiment: EMSA; 5 mM EDTA; EMSA with ~4-5 ng labelled DNA; 5 mM EDTA (gel 0.5x TBE) or 3 mM MgCl2 without EDTA (gel 0.5x TB + 200 uM MgCl2); buffer as in cited ref 18; salt, pH and temperature not stated; settings: protein: recombinant; chain copies: 4; label: 5' IRD700 on S24 (IT.01); fork of 3 strands; two arms double-stranded, one single-stranded (5' part of strand 2)
T1 sequence: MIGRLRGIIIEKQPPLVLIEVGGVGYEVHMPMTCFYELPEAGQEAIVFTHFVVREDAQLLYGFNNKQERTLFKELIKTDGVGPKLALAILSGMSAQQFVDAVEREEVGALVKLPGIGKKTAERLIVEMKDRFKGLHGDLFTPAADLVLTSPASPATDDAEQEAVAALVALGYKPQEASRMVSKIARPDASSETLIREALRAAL

[2] = biological target: T2, RuvAz3 (Escherichia coli, UniProt P0A809 1-203, H29R;K129E;F140S); experiment: as above; settings: protein: recombinant; chain copies: 4; label: 5' IRD700 on S24 (IT.01); fork of 3 strands; two arms double-stranded, one single-stranded (5' part of strand 2)
T2 sequence: T1 sequence with H29R, D79N, D100N, K129E, F140S

[3] = biological target: T1, RuvAz87; experiment: EMSA; 3 mM Mg2+; EMSA with ~4-5 ng labelled DNA; 5 mM EDTA (gel 0.5x TBE) or 3 mM MgCl2 without EDTA (gel 0.5x TB + 200 uM MgCl2); buffer as in cited ref 18; salt, pH and temperature not stated; settings: protein: recombinant; chain copies: 4; label: 5' IRD700 on S24 (IT.01); three-arm fork of 4 strands, all arms double-stranded
[4] = biological target: T2, RuvAz3; experiment: as above; settings: protein: recombinant; chain copies: 4; label: 5' IRD700 on S24 (IT.01); three-arm fork of 4 strands, all arms double-stranded

B1: F1 (fork, one arm single-stranded) (structured_DNA)
DNA 1: GACGCTGCCGAATTCTACCAGTGCCTTGCTAGGACATCTTTGCCCACCTGCAGGTTCACCC
DNA 2: ATGGATAGTCGGATCCTCTAGACAGCTCCATGTAGCAAGGCACTGGTAGAATTCGGCAGCGT
DNA 3: TGGGTGAACCTGCAGGTGGGCAAAGATGTCC
binding result [1]: no binding | binding result [2]: no binding

B2: F2 (fork, three double-stranded arms) (structured_DNA)
DNA 1: B1 DNA 1
DNA 2: B1 DNA 2
DNA 3: B1 DNA 3
DNA 4: CATGGAGCTGTCTAGAGGATCCGACTATCGA
binding result [3]: no binding | binding result [4]: no binding
